Assay results: article PMC9481577, “Structures reveal a key mechanism of WAVE regulatory complex activation by Rac1 GTPase” (Nature Communications, 2022)

Biological target: T1, HSPC300 (subunit of the WRC) (human, UniProt Q8WUW1 1-75)
T1 construct: HSPC300, human, full length; source: E. coli, purified within the WRC
T1 sequence (looked up): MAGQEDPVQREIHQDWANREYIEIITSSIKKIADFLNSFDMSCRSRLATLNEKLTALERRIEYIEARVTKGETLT
Assay: cryo-EM structure; WRC^apo at 1.2 µM in 10 mM HEPES-KOH pH 7.0, 50 mM KCl, 1 mM MgCl2, 1 mM DTT, 5% (v/v) glycerol; 3.0 Å
Conditions: both partners purified

B1: WAVE1(1-230)-(GGS)6-WCA(485-559) (subunit of the WRC) (domain or fragment, human)
chain: MPLVKRNIDPRHLCHTALPRGIKNELECVTNISLANIIRQLSSLSKYAEDIFGELFNEAHSFSFRVNSLQERVDRLSVSVTQLDPKEEELSLQDITMRKAFRSSTIQDQQLFDRKTLPIPLQETYDVCEQPPPLNILTPYRDDGKEGLKFYTNPSYFFDLWKEKMLQDTEDKRKEKRKQKQKNLDRPHEPEKVPRAPHDRRREWQKLAQGPELAEDDANLLHKHIEVANGGGSGGSGGSGGSGGSGGSKRHPSTLPVISDARSVLLEAIRKGIQLRKVEEQREQEAKHERIENDVATILSRRIAVEYSDSEDDSEFDEVDWLE
notes: WAVE1, human, residues 1-230; (GGS)6 linker, written out from the printed formula; WAVE1, human, WCA, residues 485-559; source: E. coli, purified within the WRC
Q: Does B1 bind?
A: Result: binds
